Literature values in article PMC7139808.

Experiments:
[1] = molecular target: hemoglobin (Mus musculus) (UniProt P01942)
[2] = molecular target: hemoglobin (Homo sapiens) (UniProt P69905)
UniProt P69905, sequence (P69905 2-142, chain 1 of 2): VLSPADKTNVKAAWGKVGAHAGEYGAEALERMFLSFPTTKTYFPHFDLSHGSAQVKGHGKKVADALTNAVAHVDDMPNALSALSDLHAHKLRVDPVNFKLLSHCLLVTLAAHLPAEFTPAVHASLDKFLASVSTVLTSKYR
UniProt P69905, sequence (P68871 2-147, chain 2 of 2, further chain): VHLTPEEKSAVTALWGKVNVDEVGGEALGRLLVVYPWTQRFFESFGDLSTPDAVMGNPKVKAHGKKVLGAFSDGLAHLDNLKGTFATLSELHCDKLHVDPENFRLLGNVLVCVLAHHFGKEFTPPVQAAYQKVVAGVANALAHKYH

UniProt P01942, sequence (P01942 2-142, chain 1 of 2): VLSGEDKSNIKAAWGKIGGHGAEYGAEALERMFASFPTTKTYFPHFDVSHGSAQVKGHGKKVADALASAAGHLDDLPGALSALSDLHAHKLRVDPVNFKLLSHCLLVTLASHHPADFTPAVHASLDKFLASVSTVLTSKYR
UniProt P01942, sequence (P02088 2-147, chain 2 of 2, further chain): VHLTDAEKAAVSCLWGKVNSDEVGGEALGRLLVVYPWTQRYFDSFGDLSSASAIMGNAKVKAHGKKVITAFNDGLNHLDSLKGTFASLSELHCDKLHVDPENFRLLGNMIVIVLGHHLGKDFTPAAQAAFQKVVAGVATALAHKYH

## IsdB (from UniProt A7X146)
[1]
  Kd: 980 nM
[2]
  Kd: 55 nM
